Assay results taken from patent publication US20200407457A1 (YANTAI OBIOADC BIOMEDICAL TECHNOLOGY, published 2020).

target: T1, TRAILR2 receptor on the surface of human tumor cells (human, UniProt O14763 56-440); experiment: cell-based or functional assay

| Binder | IC50, cytotoxic effect on A172 cells (CellTiter-Glo, 72 h) | IC50, cytotoxic effect on Jurkat E6-1 cells (CellTiter-Glo, 72 h) | IC50, cytotoxic effect on MSTO-211H cells (CellTiter-Glo, 72 h) | IC50, cytotoxic effect on Mia PaCa-2 cells (CellTiter-Glo, 72 h) | IC50, cytotoxic effect on Reh cells (CellTiter-Glo, 72 h) | eff. (efficiency %), cytotoxic effect on A172 cells | eff. (efficiency %), cytotoxic effect on Jurkat E6-1 cells | eff. (efficiency %), cytotoxic effect on MSTO-211H cells | eff. (efficiency %), cytotoxic effect on Mia PaCa-2 cells | eff. (efficiency %), cytotoxic effect on Reh cells |
| --- | --- | --- | --- | --- | --- | --- | --- | --- | --- | --- |
| Zapadcine-3a (antibody, V domains shown, MMAE coupled through linker PY-VC-PAB by thiol bridge coupling, cleavable; positions not given) VH: QVQLVQSGSELKKPGASVKVSCKASGYTFTDFSMNWVRQAPGQGLEWMGWINTETGEPTYADDFKGRFVFSLDTSVSTAYLQISSLKAEDTAVYYCARIDYWGQGTTVTVSS VL: DIVMTQSPLSLPVTPGEPASISCRSSQSLVHSNGNTYLHWYLQKPGQSPQLLIYKVSNRFSGVPDRFSGSGSGTDFTLKISRVEAEDVGVYYCFQSTHVPHTFGQGTKLEIKR | 225 ng/mL | 37.1 ng/mL | 127 ng/mL | 97 ng/mL | 15.9 ng/mL | 98.2% | 80.2% | 97.5% | 88.8% | 89.8% |
| Zapadcine-3d (antibody, V domains shown, MMAE coupled through linker MC by thiol conventional coupling, non-cleavable; positions not given) VH: QVQLVQSGSELKKPGASVKVSCKASGYTFTDFSMNWVRQAPGQGLEWMGWINTETGEPTYADDFKGRFVFSLDTSVSTAYLQISSLKAEDTAVYYCARIDYWGQGTTVTVSS VL: DIVMTQSPLSLPVTPGEPASISCRSSQSLVHSNGNTYLHWYLQKPGQSPQLLIYKVSNRFSGVPDRFSGSGSGTDFTLKISRVEAEDVGVYYCFQSTHVPHTFGQGTKLEIKR | 308 ng/mL | 5.71 ng/mL | 124 ng/mL | 139 ng/mL | 24.2 ng/mL | 92.5% | 98.9% | 98.5% | 81.7% | 98.8% |
| Zapadcine-3b (antibody, V domains shown, MMAE coupled through linker PY-MAA by thiol bridge coupling, non-cleavable; positions not given) VH: QVQLVQSGSELKKPGASVKVSCKASGYTFTDFSMNWVRQAPGQGLEWMGWINTETGEPTYADDFKGRFVFSLDTSVSTAYLQISSLKAEDTAVYYCARIDYWGQGTTVTVSS VL: DIVMTQSPLSLPVTPGEPASISCRSSQSLVHSNGNTYLHWYLQKPGQSPQLLIYKVSNRFSGVPDRFSGSGSGTDFTLKISRVEAEDVGVYYCFQSTHVPHTFGQGTKLEIKR | 389 ng/mL | 71.7 ng/mL | 255 ng/mL | 415 ng/mL | 196 ng/mL | 90.8% | 87.1% | 91% | 52.9% | 75.3% |
| Zapadcine-3c (antibody, V domains shown, MMAE coupled through linker MC-VC-PAB by thiol conventional coupling, cleavable; positions not given) VH: QVQLVQSGSELKKPGASVKVSCKASGYTFTDFSMNWVRQAPGQGLEWMGWINTETGEPTYADDFKGRFVFSLDTSVSTAYLQISSLKAEDTAVYYCARIDYWGQGTTVTVSS VL: DIVMTQSPLSLPVTPGEPASISCRSSQSLVHSNGNTYLHWYLQKPGQSPQLLIYKVSNRFSGVPDRFSGSGSGTDFTLKISRVEAEDVGVYYCFQSTHVPHTFGQGTKLEIKR | 703 ng/mL | 89.6 ng/mL | 220 ng/mL | 508 ng/mL | 889 ng/mL | 93.2% | 82% | 98.2% | 86.3% | 98.6% |
| Zapadcine-3e (antibody, V domains shown, MMAF coupled through linker MC by thiol conventional coupling, non-cleavable; positions not given) VH: QVQLVQSGSELKKPGASVKVSCKASGYTFTDFSMNWVRQAPGQGLEWMGWINTETGEPTYADDFKGRFVFSLDTSVSTAYLQISSLKAEDTAVYYCARIDYWGQGTTVTVSS VL: DIVMTQSPLSLPVTPGEPASISCRSSQSLVHSNGNTYLHWYLQKPGQSPQLLIYKVSNRFSGVPDRFSGSGSGTDFTLKISRVEAEDVGVYYCFQSTHVPHTFGQGTKLEIKR | – | 98.1 ng/mL | 178 ng/mL | 951 ng/mL | 163 ng/mL | – | 90.7% | 99.1% | 53% | 77.4% |

target: T1, TRAILR2 receptor on the surface of …; experiment: cell-based or functional assay; remark: another data set of the same source

| Binder | IC50, cytotoxic effect on A2780 cells (CellTiter-Glo, 72 h) | IC50, cytotoxic effect on Jurkat E6-1 cells (CellTiter-Glo, 72 h) | IC50, cytotoxic effect on Mia PaCa-2 cells (CellTiter-Glo, 72 h) | IC50, cytotoxic effect on NCI-H460 cells (CellTiter-Glo, 72 h) | IC50, cytotoxic effect on NCI-H1975 cells (CellTiter-Glo, 72 h) | IC50, cytotoxic effect on SMMC-7721 cells (CellTiter-Glo, 72 h) | eff. (efficiency %), cytotoxic effect on Jurkat E6-1 cells | eff. (efficiency %), cytotoxic effect on Mia PaCa-2 cells | eff. (efficiency %), cytotoxic effect on NCI-H460 cells | eff. (efficiency %), cytotoxic effect on NCI-H1975 cells |
| --- | --- | --- | --- | --- | --- | --- | --- | --- | --- | --- |
| Zapadcine-1a (antibody, V domains shown, MMAD coupled through linker Py-Vc-PAB by thiol (disulfide) bridge coupling, cleavable; positions not given) VH: QVQLVQSGSELKKPGASVKVSCKASGYTFTDFSMNWVRQAPGQGLEWMGWINTETGEPTYADDFKGRFVFSLDTSVSTAYLQISSLKAEDTAVYYCARIDYWGQGTTVTVSS VL: DIVMTQSPLSLPVTPGEPASISCRSSQSLVHSNGNTYLHWYLQKPGQSPQLLIYKVSNRFSGVPDRFSGSGSGTDFTLKISRVEAEDVGVYYCFQSTHVPHTFGQGTKLEIKR | 151 ng/mL | 13.3 ng/mL | 135 ng/mL | 86.5 ng/mL | 109 ng/mL | 12 ng/mL | 97.3% | 88.4% | 96.2% | 84.6% |
| Zapadcine-1c (antibody, V domains shown, MMAD coupled through linker Py-MAA by thiol bridge coupling, non-cleavable; positions not given) VH: QVQLVQSGSELKKPGASVKVSCKASGYTFTDFSMNWVRQAPGQGLEWMGWINTETGEPTYADDFKGRFVFSLDTSVSTAYLQISSLKAEDTAVYYCARIDYWGQGTTVTVSS VL: DIVMTQSPLSLPVTPGEPASISCRSSQSLVHSNGNTYLHWYLQKPGQSPQLLIYKVSNRFSGVPDRFSGSGSGTDFTLKISRVEAEDVGVYYCFQSTHVPHTFGQGTKLEIKR | – | 16.5 ng/mL | 173 ng/mL | 65.1 ng/mL | 312 ng/mL | 19.7 ng/mL | 98.1% | 74% | 46.4% | 83% |
| Zapadcine-1b (antibody, V domains shown, MMAD coupled through linker Mc-Vc-PAB by thiol conventional coupling, cleavable; positions not given) VH: QVQLVQSGSELKKPGASVKVSCKASGYTFTDFSMNWVRQAPGQGLEWMGWINTETGEPTYADDFKGRFVFSLDTSVSTAYLQISSLKAEDTAVYYCARIDYWGQGTTVTVSS VL: DIVMTQSPLSLPVTPGEPASISCRSSQSLVHSNGNTYLHWYLQKPGQSPQLLIYKVSNRFSGVPDRFSGSGSGTDFTLKISRVEAEDVGVYYCFQSTHVPHTFGQGTKLEIKR | 1100 ng/mL | 8.71 ng/mL | 604 ng/mL | 178 ng/mL | 410 ng/mL | 178 ng/mL | 98.6% | 86.8% | 93.3% | 83.4% |
| Zapadcine-1d (antibody, V domains shown, MMAF coupled through linker Mc-Vc-PAB by thiol conventional coupling, cleavable; positions not given) VH: QVQLVQSGSELKKPGASVKVSCKASGYTFTDFSMNWVRQAPGQGLEWMGWINTETGEPTYADDFKGRFVFSLDTSVSTAYLQISSLKAEDTAVYYCARIDYWGQGTTVTVSS VL: DIVMTQSPLSLPVTPGEPASISCRSSQSLVHSNGNTYLHWYLQKPGQSPQLLIYKVSNRFSGVPDRFSGSGSGTDFTLKISRVEAEDVGVYYCFQSTHVPHTFGQGTKLEIKR | – | 108 ng/mL | 1020 ng/mL | 1030 ng/mL | 1670 ng/mL | 583 ng/mL | 84.9% | 80% | 80.6% | 68.8% |

same assay, conditions: not given

| Binder | eff. (efficiency %), cytotoxic effect on SMMC-7721 cells |
| --- | --- |
| Zapadcine-1a (antibody, V domains shown, MMAD coupled through linker Py-Vc-PAB by thiol (disulfide) bridge coupling, cleavable; positions not given) VH: QVQLVQSGSELKKPGASVKVSCKASGYTFTDFSMNWVRQAPGQGLEWMGWINTETGEPTYADDFKGRFVFSLDTSVSTAYLQISSLKAEDTAVYYCARIDYWGQGTTVTVSS VL: DIVMTQSPLSLPVTPGEPASISCRSSQSLVHSNGNTYLHWYLQKPGQSPQLLIYKVSNRFSGVPDRFSGSGSGTDFTLKISRVEAEDVGVYYCFQSTHVPHTFGQGTKLEIKR | 99.4% |
| Zapadcine-1c (antibody, V domains shown, MMAD coupled through linker Py-MAA by thiol bridge coupling, non-cleavable; positions not given) VH: QVQLVQSGSELKKPGASVKVSCKASGYTFTDFSMNWVRQAPGQGLEWMGWINTETGEPTYADDFKGRFVFSLDTSVSTAYLQISSLKAEDTAVYYCARIDYWGQGTTVTVSS VL: DIVMTQSPLSLPVTPGEPASISCRSSQSLVHSNGNTYLHWYLQKPGQSPQLLIYKVSNRFSGVPDRFSGSGSGTDFTLKISRVEAEDVGVYYCFQSTHVPHTFGQGTKLEIKR | 96.5% |
| Zapadcine-1b (antibody, V domains shown, MMAD coupled through linker Mc-Vc-PAB by thiol conventional coupling, cleavable; positions not given) VH: QVQLVQSGSELKKPGASVKVSCKASGYTFTDFSMNWVRQAPGQGLEWMGWINTETGEPTYADDFKGRFVFSLDTSVSTAYLQISSLKAEDTAVYYCARIDYWGQGTTVTVSS VL: DIVMTQSPLSLPVTPGEPASISCRSSQSLVHSNGNTYLHWYLQKPGQSPQLLIYKVSNRFSGVPDRFSGSGSGTDFTLKISRVEAEDVGVYYCFQSTHVPHTFGQGTKLEIKR | 95.7% |
| Zapadcine-1d (antibody, V domains shown, MMAF coupled through linker Mc-Vc-PAB by thiol conventional coupling, cleavable; positions not given) VH: QVQLVQSGSELKKPGASVKVSCKASGYTFTDFSMNWVRQAPGQGLEWMGWINTETGEPTYADDFKGRFVFSLDTSVSTAYLQISSLKAEDTAVYYCARIDYWGQGTTVTVSS VL: DIVMTQSPLSLPVTPGEPASISCRSSQSLVHSNGNTYLHWYLQKPGQSPQLLIYKVSNRFSGVPDRFSGSGSGTDFTLKISRVEAEDVGVYYCFQSTHVPHTFGQGTKLEIKR | 93.7% |
